B1: NMU16 (peptide)
peptide: Ac-C((PEG)2 40 kDa)[Ttds]FLFRPRN-NH2
B2: NMU12 (peptide)
peptide: Ac-C((PEG)2 40 kDa)FRVDEEFQSPFASQSRGYFLFRPRN-NH2
B3: NMU15 (peptide)
peptide: Ac-C(Succinimide(1-Et,3-yl))[Ttds]FLFRPRN-NH2
SMILES: CCN1C(=O)CC(SC[C@H](NC(C)=O)C(=O)NCCCOCCOCCOCCCNC(=O)CCC(=O)N[C@@H](Cc2ccccc2)C(=O)N[C@@H](CC(C)C)C(=O)N[C@@H](Cc2ccccc2)C(=O)N[C@@H](CCCNC(=N)N)C(=O)N2CCC[C@H]2C(=O)N[C@@H](CCCNC(=N)N)C(=O)N[C@@H](CC(N)=O)C(N)=O)C1=O
B4: NMU25 (peptide)
peptide: Palmitoyl-C((PEG)2 40 kDa)FRVDEEFQSPFASQSRGYFLFRPRN-NH2
B5: NMU18 (peptide)
peptide: Ac-C((PEG)2 40 kDa)ASQSRGYFLFRPRN-NH2
B6: NMU14 (peptide)
peptide: Ac-C((PEG)2 40 kDa)FRVDEEFQSPFASQSRGYF[dA]WRPRN-NH2
B7: NMU17 (peptide)
peptide: Ac-C(Succinimide(1-Et,3-yl))ASQSRGYFLFRPRN-NH2
SMILES: CCN1C(=O)CC(SC[C@H](NC(C)=O)C(=O)N[C@@H](C)C(=O)N[C@@H](CO)C(=O)N[C@@H](CCC(N)=O)C(=O)N[C@@H](CO)C(=O)N[C@@H](CCCNC(=N)N)C(=O)NCC(=O)N[C@@H](Cc2ccc(O)cc2)C(=O)N[C@@H](Cc2ccccc2)C(=O)N[C@@H](CC(C)C)C(=O)N[C@@H](Cc2ccccc2)C(=O)N[C@@H](CCCNC(=N)N)C(=O)N2CCC[C@H]2C(=O)N[C@@H](CCCNC(=N)N)C(=O)N[C@@H](CC(N)=O)C(N)=O)C1=O

Where “and” joins values, the source holds several entries; their conditions need not be identical. Identical values can stand only once. Starred links: 1 amine or outer side, 2 acyl side, 3 side chain; linkers in the order of their positions; H or OH if unused. Non-standard residues stand in square brackets, D forms with d. *: point of attachment. Ttds = 1-amino-4,7,10-trioxa-13-tridecanamine succinimic acid spacer, O=C(CCC(=O)[*:2])NCCCOCCOCCOCCCN[*:1]; (PEG)2 40 kDa = branched PEG of 40 kDa linked via the Cys side-chain thiol (code C2 = Cys(PEG)2 40 kDa); Succinimide(1-Et,3-yl) = CCN1C(=O)CC(*)C1=O; Palmitoyl = CCCCCCCCCCCCCCCC(=O)* Some results are limits rather than exact numbers.

rat NMUR2, sequence (Q9ESQ4 whole entry): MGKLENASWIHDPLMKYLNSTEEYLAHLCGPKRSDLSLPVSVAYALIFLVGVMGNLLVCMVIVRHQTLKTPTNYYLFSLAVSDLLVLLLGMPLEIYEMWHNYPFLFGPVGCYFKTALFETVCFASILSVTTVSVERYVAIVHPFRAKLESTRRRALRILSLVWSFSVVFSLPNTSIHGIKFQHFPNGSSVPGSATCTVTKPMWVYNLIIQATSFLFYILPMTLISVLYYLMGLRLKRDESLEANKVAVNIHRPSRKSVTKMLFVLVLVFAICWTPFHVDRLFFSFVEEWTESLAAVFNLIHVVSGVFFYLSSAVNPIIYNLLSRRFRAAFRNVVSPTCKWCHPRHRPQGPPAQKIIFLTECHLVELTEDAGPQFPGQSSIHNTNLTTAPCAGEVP

For one test, the target named is T1, human NMUR1 (human, UniProt Q9HB89 1-426).
T1 sequence (looked up): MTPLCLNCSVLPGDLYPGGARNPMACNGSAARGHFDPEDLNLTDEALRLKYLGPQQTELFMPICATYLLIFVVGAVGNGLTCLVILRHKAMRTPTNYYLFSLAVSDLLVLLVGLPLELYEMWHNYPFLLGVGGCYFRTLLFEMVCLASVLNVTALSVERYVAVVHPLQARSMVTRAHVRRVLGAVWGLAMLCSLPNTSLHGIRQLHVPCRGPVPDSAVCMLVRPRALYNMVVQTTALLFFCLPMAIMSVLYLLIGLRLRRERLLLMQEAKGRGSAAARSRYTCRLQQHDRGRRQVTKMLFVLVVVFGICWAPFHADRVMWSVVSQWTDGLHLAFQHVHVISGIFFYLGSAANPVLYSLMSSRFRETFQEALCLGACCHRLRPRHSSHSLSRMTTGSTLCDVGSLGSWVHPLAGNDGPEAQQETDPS
As to the kind of experiment: cell-based or functional assay.
As to B1, the “% Activity (FLIPR)” value came to 74% and the “EC50 (FLIPR)” value turned out to be 1000 nM.
As to B2, the “% Activity (FLIPR)” value is 92.9% and the “EC50 (FLIPR)” value is 58.6 nM.
On the same counts, the results for B3 are 91.5% and 7.7 nM.
On the same counts, the results for B4 are 83% and 168 nM.
For B5 the same measures were 97.1% and 68.1 nM.
As for B6, the “% Activity (FLIPR)” value worked out at 95.7% and the “EC50 (FLIPR)” value came out at 104 nM.
For B7 the same measures were 100% and 5 nM.

In the next test the target is human NMUR2 (human, UniProt Q9GZQ4 1-415). As to the kind of experiment: cell-based or functional assay.
human NMUR2, sequence (Q9GZQ4 whole entry): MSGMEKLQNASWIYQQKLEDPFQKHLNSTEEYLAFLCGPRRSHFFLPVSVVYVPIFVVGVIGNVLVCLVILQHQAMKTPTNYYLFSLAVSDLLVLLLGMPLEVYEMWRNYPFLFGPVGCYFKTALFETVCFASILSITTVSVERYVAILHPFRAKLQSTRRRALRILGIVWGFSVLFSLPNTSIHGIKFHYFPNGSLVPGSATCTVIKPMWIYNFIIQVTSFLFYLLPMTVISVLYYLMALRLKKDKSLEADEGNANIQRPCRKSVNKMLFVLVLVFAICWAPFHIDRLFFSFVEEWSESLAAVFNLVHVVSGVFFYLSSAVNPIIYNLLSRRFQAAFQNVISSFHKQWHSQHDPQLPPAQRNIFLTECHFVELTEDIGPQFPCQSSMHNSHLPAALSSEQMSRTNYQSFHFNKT
Take B1: the “% Activity (FLIPR)” value was determined as 75% and the “EC50 (FLIPR)” value was determined as 1000 nM.
As for B2, the “% Activity (FLIPR)” value is 89% and the “EC50 (FLIPR)” value turned out to be 119 nM.
Consider B3, for which the “% Activity (FLIPR)” value is 101% and the “EC50 (FLIPR)” value came to 4.2 nM.
On to B4, for which the “% Activity (FLIPR)” value came to 98.8% and the “EC50 (FLIPR)” value turned out to be 44.1 nM.
As for B5, the “% Activity (FLIPR)” value stood at 101% and the “EC50 (FLIPR)” value came out at 65.7 nM.
On the same counts, the results for B6 are 0% and above 1000 nM.
On the same counts, the results for B7 are 99.8% and 1.5 nM.

The next test concerns the target T2, mouse NMUR1-ATG (mouse, UniProt O55040 1-428).
T2 sequence (looked up): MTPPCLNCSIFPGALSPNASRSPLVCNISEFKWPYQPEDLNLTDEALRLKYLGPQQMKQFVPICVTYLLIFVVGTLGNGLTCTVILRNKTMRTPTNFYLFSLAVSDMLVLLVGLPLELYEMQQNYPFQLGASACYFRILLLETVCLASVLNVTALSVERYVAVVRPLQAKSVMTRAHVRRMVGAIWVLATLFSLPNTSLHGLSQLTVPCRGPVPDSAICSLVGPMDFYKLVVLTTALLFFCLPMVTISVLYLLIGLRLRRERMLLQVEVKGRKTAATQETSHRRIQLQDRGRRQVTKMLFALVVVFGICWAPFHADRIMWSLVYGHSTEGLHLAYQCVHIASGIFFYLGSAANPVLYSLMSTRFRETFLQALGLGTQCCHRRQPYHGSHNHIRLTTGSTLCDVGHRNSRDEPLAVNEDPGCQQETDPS
The test can be described thus: cell-based or functional assay.
In the case of B1, the “% Activity (FLIPR)” value worked out at 100% and the “EC50 (FLIPR)” value came out at 24.1 nM.
For B2 the same measures were 98.4% and 72 nM.
For B3 the same measures were 100% and 1.5 nM.
Turning to B4, the “% Activity (FLIPR)” value came to 100% and the “EC50 (FLIPR)” value was determined as 10.2 nM.
On the same counts, the results for B5 are 100% and 15.2 nM.
As to B6, the “% Activity (FLIPR)” value was found to be 60.8% and the “EC50 (FLIPR)” value was 584 nM.
Turning to B7, the “% Activity (FLIPR)” value stood at 100% and the “EC50 (FLIPR)” value was 1.2 nM.

A further test concerns the target T3, mouse NMUR1-CTG (mouse, UniProt O55040 1-428).
T3 sequence (looked up): T2 sequence (looked up)
The test can be described thus: cell-based or functional assay.
Regarding B1, the “% Activity (FLIPR)” value worked out at 57.2% and the “EC50 (FLIPR)” value was 651 nM.
For B2 the same measures were 68.5% and 407 nM.
In the case of B3, the “% Activity (FLIPR)” value was 100% and the “EC50 (FLIPR)” value worked out at 4 nM.
On to B4, for which the “% Activity (FLIPR)” value was found to be 100% and the “EC50 (FLIPR)” value came out at 60.3 nM.
On the same counts, the results for B5 are 57.7% and 693 nM.
On the same counts, the results for B6 are 24.8% and above 1000 nM.
On the same counts, the results for B7 are 117% and 2.9 nM.

The next test deals with mouse NMUR2 (mouse, UniProt Q8BZ39 1-395). As to the kind of experiment: cell-based or functional assay.
mouse NMUR2, sequence (Q8BZ39 whole entry): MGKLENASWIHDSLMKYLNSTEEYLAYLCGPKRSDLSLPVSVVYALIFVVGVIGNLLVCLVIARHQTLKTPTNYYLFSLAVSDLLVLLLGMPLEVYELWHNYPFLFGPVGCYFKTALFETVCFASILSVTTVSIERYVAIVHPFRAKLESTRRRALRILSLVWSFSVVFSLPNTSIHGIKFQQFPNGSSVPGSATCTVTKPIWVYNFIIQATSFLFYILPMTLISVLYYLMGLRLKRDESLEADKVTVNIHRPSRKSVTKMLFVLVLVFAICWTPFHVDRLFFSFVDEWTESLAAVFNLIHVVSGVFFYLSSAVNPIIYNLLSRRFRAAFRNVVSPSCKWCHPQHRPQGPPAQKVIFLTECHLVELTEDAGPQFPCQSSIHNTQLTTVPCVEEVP
Consider B1, for which the “% Activity (FLIPR)” value amounted to 97.4% and the “EC50 (FLIPR)” value is 138 nM.
In the case of B2, the “% Activity (FLIPR)” value is 94.1% and the “EC50 (FLIPR)” value was 19.1 nM.
For B3 the same measures were 100% and 0.6 nM.
Consider B4, for which the “% Activity (FLIPR)” value is 100% and the “EC50 (FLIPR)” value came out at 18.8 nM.
Turning to B5, the “% Activity (FLIPR)” value came out at 100% and the “EC50 (FLIPR)” value amounted to 50.2 nM.
For B6 the same measures were 0% and above 1000 nM.
With B7, the “% Activity (FLIPR)” value was found to be 100% and the “EC50 (FLIPR)” value was found to be 0.5 nM.

The target in another test is T4, rat NMUR1-ATG (rat, UniProt Q9JJI5 1-425).
T4 sequence (looked up): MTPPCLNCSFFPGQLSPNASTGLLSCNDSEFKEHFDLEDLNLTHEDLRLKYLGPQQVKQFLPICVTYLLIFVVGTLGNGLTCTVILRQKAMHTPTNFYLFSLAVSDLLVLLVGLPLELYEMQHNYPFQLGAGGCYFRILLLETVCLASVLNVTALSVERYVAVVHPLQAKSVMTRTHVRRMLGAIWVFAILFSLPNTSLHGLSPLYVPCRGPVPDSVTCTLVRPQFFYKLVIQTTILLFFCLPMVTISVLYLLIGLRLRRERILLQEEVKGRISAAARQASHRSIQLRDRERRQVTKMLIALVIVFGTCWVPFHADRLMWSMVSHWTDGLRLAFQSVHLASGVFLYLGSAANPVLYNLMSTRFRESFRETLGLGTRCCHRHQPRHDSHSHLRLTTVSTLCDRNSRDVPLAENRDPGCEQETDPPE
The test can be described thus: cell-based or functional assay.
For the molecule B1, the “% Activity (FLIPR)” value was determined as 75.4% and the “EC50 (FLIPR)” value is 418 nM.
On the same counts, the results for B2 are 52.7% and 1000 nM.
Take B3: the “% Activity (FLIPR)” value is 100% and the “EC50 (FLIPR)” value was determined as 4.2 nM.
On the same counts, the results for B4 are 99.6% and 20.1 nM.
On the same counts, the results for B5 are 95.9% and 28.6 nM.
As for B6, the “EC50 (FLIPR)” value is 240 nM and 133 nM.
As to B7, the “% Activity (FLIPR)” value amounted to 100% and the “EC50 (FLIPR)” value was 0.9 nM.

The next test addresses T5, rat NMUR1-TTG (rat, UniProt Q9JJI5 1-425).
T5 sequence (looked up): T4 sequence (looked up)
The test can be described thus: cell-based or functional assay.
Consider B1, for which the “% Activity (FLIPR)” value was 34.6% and the “EC50 (FLIPR)” value came to 1000 nM.
For B3, the “% Activity (FLIPR)” value stood at 108% and the “EC50 (FLIPR)” value was found to be 24.6 nM.
B4: the “% Activity (FLIPR)” value was 93.5% and the “EC50 (FLIPR)” value is 81 nM.
Turning to B5, the “% Activity (FLIPR)” value worked out at 90.7% and the “EC50 (FLIPR)” value was found to be 105 nM.
On the same counts, the results for B6 are 36.7% and above 1000 nM.
Consider B7, for which the “% Activity (FLIPR)” value was found to be 105% and the “EC50 (FLIPR)” value was 4.9 nM.

A further test has as its target rat NMUR2 (rat, UniProt Q9ESQ4 1-395). As to the kind of experiment: cell-based or functional assay.
Take B1: the “% Activity (FLIPR)” value turned out to be 86.9% and the “EC50 (FLIPR)” value stood at 315 nM.
For the molecule B2, the “% Activity (FLIPR)” value amounted to 43.4% and the “EC50 (FLIPR)” value is 1000 nM.
Turning to B3, the “% Activity (FLIPR)” value was 100% and the “EC50 (FLIPR)” value turned out to be 2.2 nM.
As for B4, the “% Activity (FLIPR)” value was determined as 96.4% and the “EC50 (FLIPR)” value stood at 37.8 nM.
On the same counts, the results for B5 are 96.7% and 63 nM.
On the same counts, the results for B7 are 100% and 1.2 nM.

(Values after patent publication US20070244048A1 (published 2007).)
